From patent publication US20250320278A1 (LA JOLLA INSTITUTE FOR IMMUNOLOGY, published 2025)

Tests used:
[1] = biological target: T1, SARS-CoV-2 N protein oligomerization domain (SARS-CoV-2, UniProt P0DTC9 247-364); test: Octet, KD (nM) heat map
T1 construct: also called N olig. domain; OD

[2] = biological target: T2, SARS-CoV-2 N protein, full-length (SARS-CoV-2, UniProt P0DTC9 1-419); test: Octet, KD (nM) heat map
T2 construct: mature; also called SARS-CoV-2 nucleoprotein

B1: NP3-C11 (antibody, V domains shown)
VH: EVQLVESGGGLVRPGGSLKLSCAASGFTFSDYYMYWVRQTPEKRLEWVATISDGGGYNYYPDSVKGRFTVSRDNAKNNLYLQMSSLKSEDTAMYYCVRDKYDGWGSDFDVWGAGTTVTVSS
VL: DIVMTQSPSLMSTSLGERVTMTCTANSSVSSNYMHWYQQKPGSSPKLWIYSTSNLASGVPARFSGSGSGTSYSLTISNMEAEDAATYYCHQFHRSPRTFGGGTKLEIK
B1: no binding [1]; binds [2].
